Results on 3 molecules are retold here after patent US20180094059A1 (UNIVERSITAT STUTTGART, published 2018).

Assay [1] concerns the target T1, EGFR on EGFR-positive tumor cell lines (UniProt P00533 25-1210, limits assumed).
T1 construct: whole, on cells; The cell line is named under assay or readout; also called EGFR+ cell lines
Kind of assay: flow cytometry, Colo205 cells. (A flow cytometer gives signals particle by particle.)

The target of assay [2] is T1, EGFR on EGFR-positive tumor cell lines. Description: flow cytometry, HCT116 cells.
The next assay addresses T2, EGFR-Fc (UniProt P00533 25-645).
T2 construct: also called purified EGFR-Fc; not shown: Fc part
Kind of assay: ELISA, EGFR-Fc.

For assay [3], the target named is fibroblast activation protein (FAP) on transfected HT1080 cells (UniProt Q12884 1-760, limits assumed). Description: cell-based or functional assay.

B1: anti-EGFR IgG LC-scTRAIL3-FAVSGAA (other)
heavy: ASDYKDDDDKGAEVQLVESGGGLVQPGGSLRLSCAASGFSLTNYGVHWVRQAPGKGLEWLGVIWSGGNTDYNTPFTSRFTISRDNSKNTLYLQMNSLRAEDTAVYYCARALTYYDYEFAYWGQGTTVTVSSASTKGPSVFPLAPSSKSTSGGTAALGCLVKDYFPEPVTVSWNSGALTSGVHTFPAVLQSSGLYSLSSVVTVPSSSLGTQTYICNVNHKPSNTKVDKKVEPKSCDKTHTCPPCPAPPVAGPSVFLFPPKPKDTLMISRTPEVTCVVVDVSHEDPEVKFNWYVDGVEVHNAKTKPREEQYNSTYRVVSVLTVLHQDWLNGKEYKCKVSNKGLPSSIEKTISKAKGQPREPQVYTLPPSRDELTKNQVSLTCLVKGFYPSDIAVEWESNGQPENNYKTTPPVLDSDGSFFLYSKLTVDKSRWQQGNVFSCSVMHEALHNHYTQKSLSLSPGK
light: DIQLTQSPSFLSASVGDRVTITCRASQSIGTNIHWYQQKPGKAPKLLIKYASESISGVPSRFSGSGSGTEFTLTISSLQPEDFATYYCQQNNNWPTTFGAGTKLEIKRTVAAPSVFIFPPSDEQLKSGTASVVCLLNNFYPREAKVQWKVDNALQSGNSQESVTEQDSKDSTYSLSSTLTLSKADYEKHKVYACEVTHQGLSSPVTKSFNRGECAAGNGTSNGTSEFGGAAAHITGTRGRSNTLSSPNSKNEKALGRKINSWESSRSGHSFLSNLHLRNGELVIHEKGFYYIYSQTYFRFQEEIKENTKNDKQMVQYIYKYTSYPDPILLMKSARNSCWSKDAEYGLYSIYQGGIFELKENDRIFVSVTNEHLIDMDHEASFFGAFAVSGAAAHITGTRGRSNTLSSPNSKNEKALGRKINSWESSRSGHSFLSNLHLRNGELVIHEKGFYYIYSQTYFRFQEEIKENTKNDKQMVQYIYKYTSYPDPILLMKSARNSCWSKDAEYGLYSIYQGGIFELKENDRIFVSVTNEHLIDMDHEASFFGAFAVSGAAAHITGTRGRSNTLSSPNSKNEKALGRKINSWESSRSGHSFLSNLHLRNGELVIHEKGFYYIYSQTYFRFQEEIKENTKNDKQMVQYIYKYTSYPDPILLMKSARNSCWSKDAEYGLYSIYQGGIFELKENDRIFVSVTNEHLIDMDHEASFFGAFAVS
notes: scTRAIL3-FAVSGAA at the C-terminus of the kappa light chain through a 15 aa peptide with two N-glycosylation sites; also called IgG-light chain (LC)-scTRAIL3
As to B1, the EC50 (in general, the concentration that produces a half-maximal response) worked out at 0.148 nM in assay [1], 0.181 nM in assay [2] and 0.46 nM in the assay with EGFR-Fc.

B2: anti-EGFR IgG HC-scTRAIL3-FAVSGAA (other)
heavy: ASDYKDDDDKGAEVQLVESGGGLVQPGGSLRLSCAASGFSLTNYGVHWVRQAPGKGLEWLGVIWSGGNTDYNTPFTSRFTISRDNSKNTLYLQMNSLRAEDTAVYYCARALTYYDYEFAYWGQGTTVTVSSASTKGPSVFPLAPSSKSTSGGTAALGCLVKDYFPEPVTVSWNSGALTSGVHTFPAVLQSSGLYSLSSVVTVPSSSLGTQTYICNVNHKPSNTKVDKKVEPKSCDKTHTCPPCPAPPVAGPSVFLFPPKPKDTLMISRTPEVTCVVVDVSHEDPEVKFNWYVDGVEVHNAKTKPREEQYNSTYRVVSVLTVLHQDWLNGKEYKCKVSNKGLPSSIEKTISKAKGQPREPQVYTLPPSRDELTKNQVSLTCLVKGFYPSDIAVEWESNGQPENNYKTTPPVLDSDGSFFLYSKLTVDKSRWQQGNVFSCSVMHEALHNHYTQKSLSLSPGKAAGNGTSNGTSEFGGAAAHITGTRGRSNTLSSPNSKNEKALGRKINSWESSRSGHSFLSNLHLRNGELVIHEKGFYYIYSQTYFRFQEEIKENTKNDKQMVQYIYKYTSYPDPILLMKSARNSCWSKDAEYGLYSIYQGGIFELKENDRIFVSVTNEHLIDMDHEASFFGAFAVSGAAAHITGTRGRSNTLSSPNSKNEKALGRKINSWESSRSGHSFLSNLHLRNGELVIHEKGFYYIYSQTYFRFQEEIKENTKNDKQMVQYIYKYTSYPDPILLMKSARNSCWSKDAEYGLYSIYQGGIFELKENDRIFVSVTNEHLIDMDHEASFFGAFAVSGAAAHITGTRGRSNTLSSPNSKNEKALGRKINSWESSRSGHSFLSNLHLRNGELVIHEKGFYYIYSQTYFRFQEEIKENTKNDKQMVQYIYKYTSYPDPILLMKSARNSCWSKDAEYGLYSIYQGGIFELKENDRIFVSVTNEHLIDMDHEASFFGAFAVS
light: DIQLTQSPSFLSASVGDRVTITCRASQSIGTNIHWYQQKPGKAPKLLIKYASESISGVPSRFSGSGSGTEFTLTISSLQPEDFATYYCQQNNNWPTTFGAGTKLEIKRTVAAPSVFIFPPSDEQLKSGTASVVCLLNNFYPREAKVQWKVDNALQSGNSQESVTEQDSKDSTYSLSSTLTLSKADYEKHKVYACEVTHQGLSSPVTKSFNRGEC
notes: scTRAIL3-FAVSGAA at the C-terminus of the heavy chain; also called IgG-heavy chain (HC)-scTRAIL3
In the case of B2, the results for the EC50 (in assay [1]; in assay [2]; with EGFR-Fc) were 0.081 nM, 0.118 nM and 0.343 nM, respectively.

B3: Db anti-FAP-Glyco-scTRAIL3-FAVSGAA (other)
chain: LEASDYKDDDDKGTGQVQLVQSGAEVKKPGASVKVSCKASGYTFTENIIHWVRQAPGQGLEWMGWFHPGSGSIKYNEKFKDRVTMTADTSTSTVYMELSSLRSEDTAVYYCARHGGTGRGAMDYWGQGTLVTVSSGGGGSDIQMTQSPSSLSASVGDRVTITCRASKSVSTSAYSYMHWYQQKPGKAPKLLIYLASNLESGVPSRFSGSGSGTDFTLTISSLQPEDFATYYCQHSRELPYTFGQGTKLEIKRAAAGNGTSNGTSEFGGAAAHITGTRGRSNTLSSPNSKNEKALGRKINSWESSRSGHSFLSNLHLRNGELVIHEKGFYYIYSQTYFRFQEEIKENTKNDKQMVQYIYKYTSYPDPILLMKSARNSCWSKDAEYGLYSIYQGGIFELKENDRIFVSVTNEHLIDMDHEASFFGAFAVSGAAAHITGTRGRSNTLSSPNSKNEKALGRKINSWESSRSGHSFLSNLHLRNGELVIHEKGFYYIYSQTYFRFQEEIKENTKNDKQMVQYIYKYTSYPDPILLMKSARNSCWSKDAEYGLYSIYQGGIFELKENDRIFVSVTNEHLIDMDHEASFFGAFAVSGAAAHITGTRGRSNTLSSPNSKNEKALGRKINSWESSRSGHSFLSNLHLRNGELVIHEKGFYYIYSQTYFRFQEEIKENTKNDKQMVQYIYKYTSYPDPILLMKSARNSCWSKDAEYGLYSIYQGGIFELKENDRIFVSVTNEHLIDMDHEASFFGAFAVS
modifications: 16 aa peptide linker with two N-glycosylation sites
As for B3, in assay [3], the “EC50 of cytotoxicity on HT1080 FAP+ cells, competing with excess anti-FAP IgG” value is 0.04 nM; the “EC50 of cytotoxicity on HT1080 FAP+ cells, with bortezomib, competing conditions” value was determined as 0.0041 nM; the “EC50 of cytotoxicity on HT1080 FAP+ cells, with bortezomib, non-competing conditions” value was 0.002 nM; the “EC50 of cytotoxicity on HT1080 FAP+ cells, without αFAP IgG” value worked out at 0.029 nM.
